According to IntAct's records for PubMed 17167421:

B1: Synaptotagmin-2 (Rattus norvegicus (Rat)), P29101 (parent)
chain: MRNIFKRNQEPIVAPATTTATMPLAPAAPADNSTESTGTGESQEDMFAKLKDKFFNEINKIPLPPWALIAMAVVAGLLLLTCCFCICKKCCCKKKKNKKEKGKGMKNAMNMKDMKGGQDDDDAETGLTEGEGEGEEEKEPENLGKLQFSLDYDFQANQLTVGVLQAAELPALDMGGTSDPYVKVFLLPDKKKKYETKVHRKTLNPAFNETFTFKVPYQELGGKTLVMAIYDFDRFSKHDIIGEVKVPMNTVDLGQPIEEWRDLQGGEKEEPEKLGDICTSLRYVPTAGKLTVCILEAKNLKKMDVGGLSDPYVKIHLMQNGKRLKKKKTTVKKKTLNPYFNESFSFEIPFEQIQKVQVVVTVLDYDKLGKNEAIGKIFVGSNATGTELRHWSDMLANPRRPIAQWHSLKPEEEVDALLGKNK

Variants of: B1
Details: with bxb_clobo botB

Variant	effect of a mutation on the interaction
MRNIFKRNQEPIVAPATTTATMPLAPAAPADNSTESTGTGESQEDMFAKLKDKAFNEINKIPLPPWALIAMAVVAGLLLLTCCFCICKKCCCKKKKNKKEKGKGMKNAMNMKDMKGGQDDDDAETGLTEGEGEGEEEKEPENLGKLQFSLDYDFQANQLTVGVLQAAELPALDMGGTSDPYVKVFLLPDKKKKYETKVHRKTLNPAFNETFTFKVPYQELGGKTLVMAIYDFDRFSKHDIIGEVKVPMNTVDLGQPIEEWRDLQGGEKEEPEKLGDICTSLRYVPTAGKLTVCILEAKNLKKMDVGGLSDPYVKIHLMQNGKRLKKKKTTVKKKTLNPYFNESFSFEIPFEQIQKVQVVVTVLDYDKLGKNEAIGKIFVGSNATGTELRHWSDMLANPRRPIAQWHSLKPEEEVDALLGKNK [F54A]	disrupting interaction strength
MRNIFKRNQEPIVAPATTTATMPLAPAAPADNSTESTGTGESQEDMAAKLKDKFFNEINKIPLPPWALIAMAVVAGLLLLTCCFCICKKCCCKKKKNKKEKGKGMKNAMNMKDMKGGQDDDDAETGLTEGEGEGEEEKEPENLGKLQFSLDYDFQANQLTVGVLQAAELPALDMGGTSDPYVKVFLLPDKKKKYETKVHRKTLNPAFNETFTFKVPYQELGGKTLVMAIYDFDRFSKHDIIGEVKVPMNTVDLGQPIEEWRDLQGGEKEEPEKLGDICTSLRYVPTAGKLTVCILEAKNLKKMDVGGLSDPYVKIHLMQNGKRLKKKKTTVKKKTLNPYFNESFSFEIPFEQIQKVQVVVTVLDYDKLGKNEAIGKIFVGSNATGTELRHWSDMLANPRRPIAQWHSLKPEEEVDALLGKNK [F47A]	disrupting interaction strength
MRNIFKRNQEPIVAPATTTATMPLAPAAPADNSTESTGTGESQEDMFAKAKDKFFNEINKIPLPPWALIAMAVVAGLLLLTCCFCICKKCCCKKKKNKKEKGKGMKNAMNMKDMKGGQDDDDAETGLTEGEGEGEEEKEPENLGKLQFSLDYDFQANQLTVGVLQAAELPALDMGGTSDPYVKVFLLPDKKKKYETKVHRKTLNPAFNETFTFKVPYQELGGKTLVMAIYDFDRFSKHDIIGEVKVPMNTVDLGQPIEEWRDLQGGEKEEPEKLGDICTSLRYVPTAGKLTVCILEAKNLKKMDVGGLSDPYVKIHLMQNGKRLKKKKTTVKKKTLNPYFNESFSFEIPFEQIQKVQVVVTVLDYDKLGKNEAIGKIFVGSNATGTELRHWSDMLANPRRPIAQWHSLKPEEEVDALLGKNK [L50A]	decreasing interaction strength
MRNIFKRNQEPIVAPATTTATMPLAPAAPADNSTESTGTGESQEDMFAKLKDKFFNKINKIPLPPWALIAMAVVAGLLLLTCCFCICKKCCCKKKKNKKEKGKGMKNAMNMKDMKGGQDDDDAETGLTEGEGEGEEEKEPENLGKLQFSLDYDFQANQLTVGVLQAAELPALDMGGTSDPYVKVFLLPDKKKKYETKVHRKTLNPAFNETFTFKVPYQELGGKTLVMAIYDFDRFSKHDIIGEVKVPMNTVDLGQPIEEWRDLQGGEKEEPEKLGDICTSLRYVPTAGKLTVCILEAKNLKKMDVGGLSDPYVKIHLMQNGKRLKKKKTTVKKKTLNPYFNESFSFEIPFEQIQKVQVVVTVLDYDKLGKNEAIGKIFVGSNATGTELRHWSDMLANPRRPIAQWHSLKPEEEVDALLGKNK [E57K]	disrupting interaction strength
MRNIFKRNQEPIVAPATTTATMPLAPAAPADNSTESTGTGESQEDMFAKLKDKFANEINKIPLPPWALIAMAVVAGLLLLTCCFCICKKCCCKKKKNKKEKGKGMKNAMNMKDMKGGQDDDDAETGLTEGEGEGEEEKEPENLGKLQFSLDYDFQANQLTVGVLQAAELPALDMGGTSDPYVKVFLLPDKKKKYETKVHRKTLNPAFNETFTFKVPYQELGGKTLVMAIYDFDRFSKHDIIGEVKVPMNTVDLGQPIEEWRDLQGGEKEEPEKLGDICTSLRYVPTAGKLTVCILEAKNLKKMDVGGLSDPYVKIHLMQNGKRLKKKKTTVKKKTLNPYFNESFSFEIPFEQIQKVQVVVTVLDYDKLGKNEAIGKIFVGSNATGTELRHWSDMLANPRRPIAQWHSLKPEEEVDALLGKNK [F55A]	disrupting interaction strength
